Laboratory results published in article PMC12722041, “The low complexity linker of DNAJB6b is key to its anti-amyloid function” (QRB Discovery, 2025).

Molecular target: the molecule itself
Test: dynamic light scattering; fresh linker sample after dialysis from 4 M urea into 20 mM sodium phosphate, 0.2 mM EDTA, pH 8.0; 25 μM stock

B1: DNAJB6b (76–186), the 110-residue low complexity linker of DNAJB6b (domain or fragment, UniProt O75190-2 76-186, looked up)
chain: GGGGGSHFDSPFEFGFTFRNPDDVFREFFGGRDPFSFDFFEDPFEDFFGNRRGPRGSRSRGTGSFFSAFSGFPSFGSGFSSFDTGFTSFGSLGHGGLTSFSSTSFGGSGMG
notes: also called JB6 linker; linker peptide
- binding result: binds
